Where a chain is given by its changes, count along the chain named.
T1: murine CD300C-Fc (mouse)
T1 construct: mouse IgG2a-Fc fusion (R&D Systems); the entry is the whole fusion chain; also called mCD300C; Mouse CD300C-Fc
T1 chain: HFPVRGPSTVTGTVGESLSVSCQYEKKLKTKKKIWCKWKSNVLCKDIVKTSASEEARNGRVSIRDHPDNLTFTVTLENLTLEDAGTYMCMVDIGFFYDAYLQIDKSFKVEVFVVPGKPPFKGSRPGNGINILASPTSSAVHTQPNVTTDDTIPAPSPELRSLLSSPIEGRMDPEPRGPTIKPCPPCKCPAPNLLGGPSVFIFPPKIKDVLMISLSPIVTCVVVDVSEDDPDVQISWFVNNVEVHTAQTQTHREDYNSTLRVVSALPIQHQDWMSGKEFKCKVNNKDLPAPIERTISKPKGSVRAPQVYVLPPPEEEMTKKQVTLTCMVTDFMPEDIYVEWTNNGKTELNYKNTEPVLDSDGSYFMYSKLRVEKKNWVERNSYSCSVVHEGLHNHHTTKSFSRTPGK

T2: murine CD300E-Fc (mouse)
T2 construct: mouse IgG2a-Fc fusion (R&D Systems); the entry is the whole fusion chain; also called mCD300E; Mouse CD300E-Fc
T2 chain: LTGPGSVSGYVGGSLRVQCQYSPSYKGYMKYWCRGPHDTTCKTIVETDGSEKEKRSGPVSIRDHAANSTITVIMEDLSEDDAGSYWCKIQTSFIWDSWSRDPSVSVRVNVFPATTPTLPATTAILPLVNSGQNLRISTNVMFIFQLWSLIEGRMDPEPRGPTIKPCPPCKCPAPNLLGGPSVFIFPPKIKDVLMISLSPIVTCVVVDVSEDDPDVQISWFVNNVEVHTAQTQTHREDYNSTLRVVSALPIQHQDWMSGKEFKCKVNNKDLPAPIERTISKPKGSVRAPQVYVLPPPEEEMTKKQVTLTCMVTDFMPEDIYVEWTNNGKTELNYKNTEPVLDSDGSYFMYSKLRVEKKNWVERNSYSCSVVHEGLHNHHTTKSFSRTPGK

T3: murine CD300LB-Fc (mouse)
T3 construct: mouse IgG2a-Fc fusion (R&D Systems); the entry is the whole fusion chain; also called mCD300LB; Mouse CD300LB-Fc
T3 chain: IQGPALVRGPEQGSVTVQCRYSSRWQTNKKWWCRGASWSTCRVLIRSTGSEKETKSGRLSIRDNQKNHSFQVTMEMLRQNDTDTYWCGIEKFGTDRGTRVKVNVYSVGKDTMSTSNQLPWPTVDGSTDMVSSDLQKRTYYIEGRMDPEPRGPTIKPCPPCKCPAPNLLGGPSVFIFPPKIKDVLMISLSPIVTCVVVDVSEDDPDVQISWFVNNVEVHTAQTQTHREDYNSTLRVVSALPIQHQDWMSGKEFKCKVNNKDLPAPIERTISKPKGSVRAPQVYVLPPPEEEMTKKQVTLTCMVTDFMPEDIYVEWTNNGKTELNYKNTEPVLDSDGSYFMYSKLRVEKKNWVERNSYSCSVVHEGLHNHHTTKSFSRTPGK

B1: anti-CD300LB antibody CD-03 (antibody, V domains shown)
VH: EVQLQQSGPELVKPGASVKISCKASGYTFTDYYINWVRQSHGKSLECIGDINPNNGGTNYNQKFKGKATLTVDRSSNTAYMEFRSLTFDDSALYYCAAEGAYWGQGTLVTVSA
VL: not shown
B2: anti-CD300LB antibody CD-07 (antibody, V domains shown)
VH: QVQLVQSGAEVKKPGASVKVSCKASGYTFTNYRMHWVRQAPGQGLEWMGWINPNSGGTIYAQKFQGRVTMTRDTSTSTVYMELSSLRSEDTAVYYCARDLDYWGQGTLVTVSS
VL: DIQMTQSPSSLSASVGDRVTITCQASQDISNYLNWYQQKPGKAPKLLIYGASSLQSGVPSRFSGSGSGTDFTLTISSLQPEDFATYYCQQSYSTPWTFGPGTKVEIK
B3: anti-CD300LB antibody CD-05 (antibody, V domains shown)
VH: QVQLVQSGAEVKKPGASVKVSCKASGYTFSRYYINWVRQAPGQGLEWMGWINPNSGGTNYAQKFQGRVTMTRDTSTSTVYMELSSLRSEDTAVYYCTTDQLRFGKTGPYYGMDVWGQGTTVTVSS
VL: B2 VL with Q24R, D28N, S30G, N31T, G50A, T94D, P95T, W96L, P100G
B4: anti-CD300LB antibody CD-06 (antibody, V domains shown)
VH: QVQLVQSGAEVKKPGASVKVSCKASGYTFTTYAVHWVRQAPGQGLEWMGIVNPNSGGTNYAQKFQGRVTMTRDTSTSTVYMELSSLRSEDTAVYYCARDIVPMNNFYNYYYGMDVWGQGTTVTVSS
VL: B2 VL with Q24R, D28S, N31S, G50A, A51T, S53T, S93R, T94I, W96Y, P100Q
B5: anti-CD300LB antibody CD-02 (antibody, V domains shown)
VH: QVQLQQPGAELVRPGSSVKLSCQASGYTFTNYWMHWVRQRPIQGLEWIGNIDPSDSETHYNQKFKDRATLTVDKSSSTAYMQLSSLTSEDSAVYYCARSGVYDDEGGDYWGQGTTLTVSS
VL: ENVLTQSPAIMSASPGEKVTMTCSASSSVSYIHWYQQKSSTSPKLWIYDTSKLASGVPGRFSGSGSGNSYSLTISSMETEDVATYYCFQGSGYPLTFGAGTKLELK
B6: anti-CD300LB antibody CD-01 (antibody, V domains shown)
VH: RVQLQQSGAELVRPGASVTLSCKASGFTFTDFEMHWVKKTPVHGLEWIGAIDPESGNTAYNQKFRGKATLTADKSSSTAYMELRYLTSEDSAVYYCTPLISGADYWGQGTTLTVSS
VL: DVVMTQSPLSLPVSLGDQASISCRSSQSLVHSDGNTYLYWYLQKPGQSPKLLIYKVSNRFSGVPDRFSGSGSGTDFTFKISRVGAEDLGVYFCSQSTHVPWTFGGGTKLEII
B7: anti-CD300LB antibody CD-14 (antibody, V domains shown)
VH: QIQLVQSGPELKKPGETVKISCKASGYTFTDYSLHWVKQTPEKNLKWMAWINTETGAPTYADDFKGRFAFSLETSSNTAYLLINNLKNEDTATYFCALTMVNYWGQGTTLTVSS
VL: DIVMTQSQKFMSTSVGDRVSVTCKASQNVGIRVAWHQQKPGQSPKTLIYSTSYRYSGVPDRFTGSGSGTEFILTISNVQSEDLAEYFCQQYNSYPYTFGGGTKLEIK
B8: anti-CD300LB antibody CD-12 (antibody, V domains shown)
VH: QIQLVQSGPELKKPGETVKISCKASGYTFTDYSMHWVRQAPGKGLKWMAWINTETGEATHADDFKGRFDFSLDTSASTAYLQIKNLKNEDTGIYFCVCYGSSYGMDYWGQGTSVTVSS
VL: DIVLTQSPASLPVSLGQRATISCRASKSVRTSGASYMHWYQQKPGQPPKLLIYLASNLKSGVPTRFSGSGSGTDFTLNIHPVEEEDAATYYCQHNREVPPTFGGGTKLEIK
B9: anti-CD300LB antibody CD-13 (antibody, V domains shown)
VH: QIQLVQSGPELKKPGETVKISCKASGYTFTDYSMHWVKQAPGKGFKWMAWINTETGAPTHADDFRGRFAFSLETSASTAFLQISNLKTEDTATYFCVTFGKSYGMNYWGQGTSVTVSS
VL: B8 VL with P12S, R30G, T31S, A34S, M37L, K59E, T64A, D74E, R96A
B10: anti-CD300LB antibody CD-15 (antibody, V domains shown)
VH: QIQLVQSGPELKKPGETVKISCQVSGYTFTDYSMHWLKQAPGKGLKWMAWINTETGESTYTDEFKGRFVFSLETSVRTAYLKINNLKNEDTATYFCGTYGSSYGMAYWGQGTSVTVSS
VL: B8 VL with R30S, A34S, M37L, N57K, K59E, T64A, S67R
B11: anti-CD300LB antibody CD-11 (antibody, V domains shown)
VH: QIQLVQSGPEVKKPGETVKISCKASGYTLTDYSMHWVMQTPGTGLKWMAWMNTETGEPTYADDFKGRFAFSLETSAGTAYLQIDNLKNEDTATYFCATYGKSYGMKYWGQGTSVTVSS
VL: DIVLTQSPPSLAVSLGQRATISCRATKSVSPYLHWYQQTPGQPPKLLIYLASNLDSGVPARFSGSGSGTDFTLNIHPVEEEDAATYYCQHNKELPPTFGGGTRLEIK
B12: anti-CD300LB antibody CD-10 (antibody, V domains shown)
VH: QVQLQQSGPELVRPGVSVKISCKGSGYTFTDYAMHWVKQSHVRSREWIGVIGTYNGHTNYNQKFKGKATMTVDKSSSTAYLELARLTSEDSAIYYCARSGSYYYSMDYWGQGTSVTVSS
VL: QIVLTQSPAIMSASPGEKVTMTCSASSSVNYMHWYQQKSGTSPKRWIYDTSKLSSGVPARFSGSGSGTSYSLTISTMEAEDAATYYCQQWSSNPPMTFGGGTKLEIK

Biological target: T4, huCD300LB-DAP12 fusion constitutively expressed on 293 Freestyle (Freestyle HEK) cells (human)
T4 construct: also called Human CD300LB-DAP12 chimera
Assay: flow cytometry, stable Freestyle HEK cells
Procedure: Other members of the human CD300 family share sequence homology with human CD300LB. Thus, counter screens against binding of the anti-CD300LB antibodies to huCD300A, huCD300C, huCD300LD, huCD300E, huCD300LF, and huCD300G by stable overexpression in Freestyle HEK cells (generation of which is described above) were performed as follows. Cells were counted and labeled with 200 nM CFSE, 500 nM VioBlue, or a combination of the two to discriminate between CD300LB, Parental cells, and the other CD300 family members. Cells were washed thoroughly with PBS containing 2% fetal bovine serum then resuspended at a total of 240,000 cells per well. Hybridoma supernatants (100 L) or purified antibodies at various concentrations were added and incubated for one hour before the cells were washed twice again and stained with an APC-labeled anti-human or anti-mouse secondary antibody. Cells were then analyzed using a BD FACSCanto II. Anti-CD300LB antibodies were analyzed for specific binding to human CD300LB by FlowJo software by gating on live cells, then the APC geometric mean fluorescence intensity (gMFI) calculated for each labeled population. The results are shown in […]
Freestyle HEK cells were transfected with huCD300A, huCD300C, huCD300D, huCD300E, and huCD300G separately. Then, five stable cell lines from these transfections were pooled; the combined cells are herein known as CD300A/C/D/E/G. Freestyle HEK cells were also transfected with huCD300LB and huCD300F. All transfected cells were then tested for binding of anti-CD300LB antibodies of the present disclosure.

Row | gMFI [gMFI] | Binder
1 | 163000 | B1
2 | 31500 | B2
3 | 113000 | B3
4 | 80900 | B4
5 | 108 | B5
6 | 45 | B6

Biological target: T1, murine CD300C-Fc
Assay: SPR (Carterra LSA), antibody immobilised, Fc fusion at 300 or 600 nM
Procedure: (§1) Binding of mouse anti-CD300LB IgG1 antibodies of the present disclosure to human and murine CD300 orthologs were evaluated by surface plasmon resonance (SPR) using a Carterra LSA instrument (Carterra, Salt Lake City, UT). […] A HC200M sensor chip (Carterra) was activated using the single channel flow cell with a 7-minute injection of a 1:1:1 mixture of 100 mM MES pH 5.5, 100 mM sulfo-NHS, 400 mM EDC (all reconstituted in MES pH 5.5; 100 μL of each mixed in vial immediately before running assay). After switching to the multi-channel array flow cell, the antibodies were injected over the activated chip in a 96-spot array for 10 minutes. The remaining unconjugated active groups on the chip were then blocked by injecting 1M Ethanolamine pH 8.5 (Carterra) for 7 minutes using the single channel flow cell. After priming with running buffer (HBS-TE, Carterra) with 0.5 mg/ml BSA (Sigma), the immobilized anti-CD300LB antibodies were tested for their ability to bind human and mouse recombinant CD300LB extracellular domains. Human CD300 family members and mouse CD300A were hIgG1-Fc fusions, while mouse CD300LB, mouse CD300C, mouse CD300D, and mouse CD300E were mouse IgG2a-Fc fusions (R&D Systems). Binding was assessed by injecting each analyte over the entire antibody array using the single channel flow cell. CD300 analytes were diluted to 300 nM or 600 nM in running buffer and injected in series without regeneration. Two or three buffer blanks were run between each mouse or human ortholog, respectively. Data were processed and analyzed using NextGenKIT high-throughput kinetics analysis software (Carterra).
(§2) Results of anti-CD300LB antibody binding to murine CD300 family members is provided below in Table 8.

Row | SPR binding (control subtracted) | Binder
7 | 17.9 | B7
8 | 2.5 | B8
9 | 43.6 | B9
10 | 13.3 | B10

Biological target: T2, murine CD300E-Fc
Assay: as above
Procedure: as §1, §2

Row | SPR binding (control subtracted) | Binder
11 | 3.6 | B7
12 | 7.4 | B11
13 | -0.6 | B8
14 | 4.5 | B9
15 | 0.8 | B10
16 | 11.3 | B12

Biological target: T3, murine CD300LB-Fc
Assay: as above
Procedure: as §1, §2

Row | SPR binding (control subtracted) | Binder
17 | 29 | B7
18 | 87.7 | B11
19 | 43.2 | B8
20 | 82.4 | B9
21 | 50 | B10
22 | 370 | B12

Reference: patent US20240254227A1 (Alector, published 2024)
